Test results as given in paper PMC7060837.
Positions count from the first letter of the chain named. Numbers in names are those of the source. Read-outs that look alike come from different tables or passages of the source. Values belong to the molecule of their own block, whether it stands above or below them.

How the values were obtained:
[1] = target: T1, katanin MEI-1/MEI-2 (wild type) (C. elegans) (UniProt P34808)
T1 sequence 1: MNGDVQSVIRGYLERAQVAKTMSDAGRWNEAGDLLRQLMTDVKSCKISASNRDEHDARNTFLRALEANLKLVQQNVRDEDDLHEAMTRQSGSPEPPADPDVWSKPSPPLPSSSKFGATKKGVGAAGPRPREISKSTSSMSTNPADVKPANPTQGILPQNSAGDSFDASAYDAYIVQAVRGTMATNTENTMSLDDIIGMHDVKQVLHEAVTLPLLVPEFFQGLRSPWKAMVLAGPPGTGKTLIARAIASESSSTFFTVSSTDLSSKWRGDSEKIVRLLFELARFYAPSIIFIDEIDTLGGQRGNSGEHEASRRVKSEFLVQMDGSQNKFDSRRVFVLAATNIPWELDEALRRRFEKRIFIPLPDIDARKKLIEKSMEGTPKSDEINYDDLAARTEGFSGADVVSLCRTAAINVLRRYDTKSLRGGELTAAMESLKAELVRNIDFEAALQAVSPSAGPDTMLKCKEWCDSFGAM
T1 sequence 2: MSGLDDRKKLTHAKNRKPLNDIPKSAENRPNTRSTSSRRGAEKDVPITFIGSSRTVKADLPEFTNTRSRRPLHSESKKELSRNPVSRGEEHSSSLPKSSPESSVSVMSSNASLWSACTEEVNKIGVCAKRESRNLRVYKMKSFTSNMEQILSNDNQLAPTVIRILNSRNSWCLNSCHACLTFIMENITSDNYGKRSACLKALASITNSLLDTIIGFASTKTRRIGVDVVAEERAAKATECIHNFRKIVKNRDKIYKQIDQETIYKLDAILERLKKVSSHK

[2] = target: GMPCPP-stabilized microtubules of porcine brain tubulin (porcine) (UniProt P02550)
[3] = target: T1, katanin MEI-1/MEI-2 (wild type) (C. elegans); remark: listed apart in the source
[4] = target: katanin MEI-1/MEI-2 mutant Glu308 to alanine (C. elegans) (UniProt P34808)
[5] = target: taxol-stabilized brain microtubules (UniProt P02550)
[6] = target: GMPCPP-stabilized microtubules of porcine brain tubulin (porcine) (UniProt P02550); remark: listed apart in the source
[7] = target: katanin MEI-1/MEI-2 mutant W266A (C. elegans) (UniProt P34808)
[8] = target: taxol-stabilized brain microtubules (UniProt P02550); remark: listed apart in the source
[9] = target: katanin MEI-1/MEI-2 mutant K265A (C. elegans) (UniProt P34808)
[10] = target: katanin MEI-1/MEI-2 mutant R267A (C. elegans) (UniProt P34808)

- stimulation of katanin ATPase by the tail, weaker than βI and βIVb by [1]: 30%
Molecule: βV-tail (peptide)

- microtubule severing activity of spastin at 20 nM, reduction against wild type [2]: 70%
Molecule: Drosophila melanogaster spastin with Arg159Arg160Arg166Arg172Arg174 mutated to alanine (enzyme)

- microtubule severing activity of spastin at 20 nM, reduction against wild type [2]: 50%
Molecule: Drosophila melanogaster spastin mutated in the N-terminal positively-charged cluster Arg110Lys111Lys117Arg118 (enzyme)

- maximal stimulation of katanin ATPase by the tail peptide (2 to 600 μM) [3]: 3.5 fold
Molecule: DATAEEEEDFGEEAEEEA [βI-tubulin tail peptide]

- basal ATPase, reduction against wild type [4]: 87%
B1: katanin MEI-1/MEI-2 mutant Glu308 to alanine (complex)
chain 1: T1 sequence 1 with E308A
chain 2: T1 sequence 2

- microtubule stimulated ATPase, reduction against wild type [5]: 50%
B2: katanin MEI-1/MEI-2 mutant K119K120R128R130K134AAAAA (complex)
chain 1: T1 sequence 1 with K119A, K120A, R128A, R130A, K134A
chain 2: T1 sequence 2

- microtubule severing activity, reduction against wild type [6]: 32%
B3: katanin MEI-1/MEI-2 Arg128Arg130Lys134Ala triple mutant (complex)
chain 1: T1 sequence 1 with R128A, R130A, K134A
chain 2: T1 sequence 2
- tubulin extraction (nanodamage) activity, reduction against wild type [6]: 51%

- basal ATPase, reduced (so in the source) [7]: 59%
- microtubule stimulated ATPase, reduced (so in the source) [8]: 64%
B4: katanin MEI-1/MEI-2 mutant W266A (complex)
chain 1: T1 sequence 1 with W266A
chain 2: T1 sequence 2

- basal ATPase, reduced (so in the source) [9]: 42%
- microtubule stimulated ATPase, reduced (so in the source) [8]: 58%
B5: katanin MEI-1/MEI-2 mutant K265A (complex)
chain 1: T1 sequence 1 with K265A
chain 2: T1 sequence 2

- basal ATPase, reduction against wild type [10]: 51%
- microtubule stimulated ATPase, reduction against wild type [8]: 60%
B6: katanin MEI-1/MEI-2 mutant R267A (complex)
chain 1: T1 sequence 1 with R267A
chain 2: T1 sequence 2

- maximal stimulation of katanin ATPase by the tail peptide (2 to 600 μM) [3]: 3.5 fold
Molecule: DATAEEEGEFEEEAEEEVA [βIVb-tubulin tail peptide]

- maximal stimulation of katanin ATPase by the tail peptide (2 to 600 μM) [3]: 2.2 fold
Molecule: VDSVEGEGEEEGEEY [α-tubulin tail peptide]
